Data: PMC10658506

Molecular target: human gp130-Fc (UniProt P40189)
Assay: flow cytometry on yeast-displayed IL-11
Details: 100 nM IL-11R added, read off a plot
[1] = 100 nM gp130-Fc, parent: est. 35000
[2] = 1000 nM gp130-Fc, parent: est. 40000

Chain of human gp130-Fc (P40189 whole entry, looked up, tested part not stated): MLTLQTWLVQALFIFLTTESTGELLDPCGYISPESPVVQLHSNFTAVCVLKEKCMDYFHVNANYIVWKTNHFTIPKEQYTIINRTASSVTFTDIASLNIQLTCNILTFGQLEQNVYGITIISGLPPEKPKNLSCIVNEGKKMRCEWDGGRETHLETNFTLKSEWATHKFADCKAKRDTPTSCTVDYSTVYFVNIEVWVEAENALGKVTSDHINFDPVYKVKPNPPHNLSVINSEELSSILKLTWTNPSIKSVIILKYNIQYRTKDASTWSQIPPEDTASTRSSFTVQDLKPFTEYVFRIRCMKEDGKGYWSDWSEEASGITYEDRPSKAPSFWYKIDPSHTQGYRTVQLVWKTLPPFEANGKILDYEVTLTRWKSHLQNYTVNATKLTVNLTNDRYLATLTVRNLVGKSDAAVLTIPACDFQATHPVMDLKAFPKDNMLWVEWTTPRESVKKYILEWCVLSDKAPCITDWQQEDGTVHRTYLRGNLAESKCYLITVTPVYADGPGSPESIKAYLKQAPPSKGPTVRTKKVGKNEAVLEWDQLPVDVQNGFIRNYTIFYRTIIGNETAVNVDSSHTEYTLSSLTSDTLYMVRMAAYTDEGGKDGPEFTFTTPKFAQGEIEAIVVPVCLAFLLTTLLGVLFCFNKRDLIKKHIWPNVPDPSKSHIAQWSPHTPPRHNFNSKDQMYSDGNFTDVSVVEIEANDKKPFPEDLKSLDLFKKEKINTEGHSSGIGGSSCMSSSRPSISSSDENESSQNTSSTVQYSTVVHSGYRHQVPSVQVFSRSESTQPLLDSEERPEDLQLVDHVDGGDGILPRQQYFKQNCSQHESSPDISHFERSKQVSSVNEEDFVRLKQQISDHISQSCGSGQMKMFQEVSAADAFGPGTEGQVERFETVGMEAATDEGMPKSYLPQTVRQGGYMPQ

response (Normalized Fluorescence) (10 nM gp130-Fc, parent: est. 28000) | response (Normalized Fluorescence) [1] | response (Normalized Fluorescence) [2] | Substance
4900 | 17000 | 26000 | yeast-displayed IL-11 GIPR precomplexed with soluble human IL-11R (from UniProt Q14626) W147A
– | 1900 | 4500 | yeast-displayed IL-11 GIPR precomplexed with soluble human IL-11R (from UniProt Q14626) L24R; W147A
